Results reported in the supplement of paper PMC12667976.

B1: library; numbered along this chain (parent)
chain: MATDAALRRLLRLHRTEIAVAVDSAFPLLHALADHDVVPEDKFQETLHLKEKEGCPQAFHALLSWLLTQDSTAILDFWRVLFKDYNLERYGRLQPILDSFPKDVDLSQPRKGRKPPAVPKALVPPPRLPTKRKASEEARAAAPAALTPRGTASPGSQLKAKPPKKPESSAEQQRLPLGNGIQTMSASVQRAVAMSSGDVPGARGAVEGILIQQVFESGGSKKCIQVGGEFYTPSKFEDSGSGKNKARSSSGPKPLVRAKGAQGAAPGGGEARLGQQGSVPAPLALPSDPQLHQKNEDECAVCRDGGELICCDGCPRAFHLACLSPPLREIPSGTWRCSSCLQATVQEVQPRAEEPRPQEPPVETPLPPGLRSAGEEVRGPPGEPLAGMDTTLVYKHLPAPPSAAPLPGLDSSALHPLLCVGPEGQQNLAPGARCGVCGDGTDVLRCTHCAAAFHWRCHFPAGTSRPGTGLRCRSCSGDVTPAPVEGVLAPSPARLAPGPAKDDTASHEPALHRDDLESLLSEHTFDGILQWAIQSMARPAAPFPS

Variants of: B1
Test: AIRE transcriptional activation functional score (insulin promoter-GFP; nonsense median 0, synonymous median 1) (normalised score); higher = higher AIRE activity (more reporter activation)
Details: with insulin promoter-GFP reporter in HEK293
Method: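 Deep mutational scan of full-length human AIRE (codon-optimized cDNA, DT-POPCode NNN libraries over three regions) integrated at a Bxb1 landing pad in HEK293 cells carrying an insulin core promoter-GFP reporter at a Flp-In site. Cells were sorted for the top 10% GFP about 14 days after transfection. Variant frequency log-ratios (select vs non-select, TileSeq) were rescaled so that the nonsense median is 0 and the synonymous median is 1, then averaged over biological replicates.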

AIRE transcriptional activation functional score, by site and new letter:
C322: S 1.41, D 1.77, N 0.919, M 1.1, P 1.25, I 0.327, R 0.999, Q 1.2, L 0.951, G 1.24, T 1.21, F 0.737, H 1.5, E 1.77, A 1.16, K 1.21
C314: P 1.1, Y 0.725, D 0.933, R 0.842, L 0.847, E 0.893, T 1.14, M 1.12, V 1.13, A 0.983, W 0.709, F 0.96, S 1.07, G 0.862, I 1.08, K 1, N 1.03, Q 0.418, H 0.752
R316: P 1.14, K 1.03, V 0.904, L 0.804, M 1.04, Q 1.05, A 0.77, W 1.28, C 1.22, F 0.43, D 1.42, S 1.19, Y 1.36, N 0.525, G 1.33, E 1.28, I 1.26, H 1.36, T 1.06
L320: I 0.729, V 0.976, Y 1.09, T 1.13, Q 0.88, F 1.19, H 0.847, S 0.896, A 1.19, R 1.16, K 0.922, N 0.948, P 0.869, C 0.84, D 1.14, E 1.22, G 0.879, M 1.03, W 0.685
G306: K 0.811, Q 1.14, M 0.451, S 0.862, V 0.712, N 1.18, L 0.492, C 0.922, W 0.744, D 0.954, T 1.15, Y 0.924, E 1.14, F 0.459, I 0.377, A 0.976, P 0.361, R 0.689, H 1.11
L308: R 0.932, E 1.02, W -0.607, A 1.06, P 0.912, G 0.784, T 0.853, V 1.16, F 0.909, I 0.905, N 0.45, C 1.43, D 0.755, M 1.11, K 0.0443, Q 1.3, S 1.12, Y 0.412, H 1.33
I309: Q 0.905, W 1.55, H 0.916, M 0.866, C 0.782, P 1.07, G 1.11, E 1.43, V 1.14, K 0.472, F 1.18, R 0.877, N 1.23, D 0.964, S 1.35, Y 1.19, L 0.505, T 0.922, A 0.827
F318: R 1.47, T 1.31, P 1.21, H 1.42, V 0.874, D 1.02, E 1.34, S 1.19, W 0.907, A 0.96, Y 1.07, L 1.05, I 1.12, N 1.45, M 1.54, K 1.39, G 1.39, C 1.32, Q 1.31
C311: F 0.878, P 1.34, R 0.856, W 0.678, E 0.822, Q 0.783, I 0.604, S 1.04, G 0.921, V 0.86, H 1.01, M 1.62, T 0.998, K 1.13, N 1.47, A 1.11, Y 0.792, D 0.772, L 0.839
H319: G 1.28, M 0.921, K 1.15, L 0.424, A 1.16, I 0.263, D 1.24, W 0.996, S 1.31, Q 1.44, N 1.26, R 1.03, C 1.43, E 1.39, V 0.662, T 1.38, F 0.514, P 1.4, Y 0.961
E307: V 1.2, I 0.714, S 1.2, N 1.41, W 0.599, L 0.372, H 1.11, M 0.227, D 0.973, C 0.732, T 1.03, G 1.18, P 0.172, Y 0.242, A 0.982, Q 1, K 1.16, F 0.273, R 1.28
G313: K 0.717, L 1.28, D 1.39, M -0.04, Y 1.16, E 0.654, W 1.27, N 0.241, R 0.762, F 1.13, V 1.22, T 0.676, H 1.5, S 0.974, Q 1, I 0.979, A 0.829, P 0.756, C 1.51
C310: P 0.625, L 0.935, Q 0.509, G 0.824, T 0.959, V 0.912, A 0.821, R 0.907, N 0.714, D 0.991, I 0.643, M 0.814, E 1.29, K 0.681, S 0.768, F 0.908, H 0.624, W 0.433, Y 0.993
A317: M 0.781, T 0.717, C 1.28, L 1.01, Y 0.503, V 0.416, N 0.865, F 0.813, W 1.53, S 0.689, E 1.37, K 0.241, P 1.23, G 0.974, Q -0.307, H 1.06, R 0.922, D 1.25, I 0.854
D312: Q 1.17, K 0.281, N 0.702, E 0.977, G 0.92, S 0.764, R 0.976, F 0.823, L 0.872, Y 0.942, M 0.226, I 0.684, V 0.485, A 1.19, H 1, T 0.953, C 1.09, W 0.939, P 0.626
G305: M 0.666, W 0.779, S 0.9, V 1.07, Y 1.05, T 1.35, H 0.264, L 1.31, K 1.08, Q 0.0432, N 1.16, R 0.945, I -0.493, P 0.937
P315: C 0.985, E 0.802, K 0.481, M 1.22, A 0.558, N 1.1, I 1, G 0.618, Q 1.05, H 0.985, Y 0.976, T 0.854, R 0.972, S 1.14, L 0.924, V 1.12, F 0.835, D 1.08, W 2.51
A321: M 1.58, V 1.05, Y 0.541, I 1.33, D 0.763, S 1.01, Q 1.11, F 1.1, G 1.21, L 0.961, W 1.14, N 1.06, H 0.857, E 0.854, T 0.918, K 1.09, P 1.3, R 0.843, C 0.948
